Assay [1] deals with T1, NylCp2-G^122Y^130A^36Q^263 alpha subunit (D122G/H130Y/D36A/E263Q) (Arthrobacter, UniProt Q79F77 1-266, D122G | H130Y | D36A | E263Q).
T1 construct: NylCp2 alpha subunit with four substitutions; also called α subunit of NylCp2-G^122Y^130A^36Q^263; source: E. coli JM109, purified with the beta subunit as the active enzyme
T1 sequence (looked up): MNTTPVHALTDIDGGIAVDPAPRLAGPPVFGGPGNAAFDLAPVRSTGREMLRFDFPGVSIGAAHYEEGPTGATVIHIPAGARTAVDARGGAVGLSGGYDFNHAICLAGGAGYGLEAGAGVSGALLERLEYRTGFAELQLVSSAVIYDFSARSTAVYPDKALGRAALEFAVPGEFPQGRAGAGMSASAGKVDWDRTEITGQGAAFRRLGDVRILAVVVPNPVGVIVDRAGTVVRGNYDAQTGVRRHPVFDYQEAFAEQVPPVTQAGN
The assay can be described thus: crystal structure; sitting-drop vapor diffusion, ammonium sulfate, 0.1 M HEPES pH 7.5, 0.2 M NaCl, 25% glycerol; space group C222_(1), two molecules (A/B dimer) in the asymmetric unit, tetramer by the crystallographic two-fold axis. Conditions: both partners purified.

The target in assay [2] is T2, NylCp2-G^122 alpha subunit (D122G) (Arthrobacter, UniProt Q79F77 1-266, D122G).
T2 construct: NylCp2 alpha subunit with D122G; also called α subunit of NylCp2-G^122; source: E. coli JM109, purified with the beta subunit as the active enzyme
T2 sequence (looked up): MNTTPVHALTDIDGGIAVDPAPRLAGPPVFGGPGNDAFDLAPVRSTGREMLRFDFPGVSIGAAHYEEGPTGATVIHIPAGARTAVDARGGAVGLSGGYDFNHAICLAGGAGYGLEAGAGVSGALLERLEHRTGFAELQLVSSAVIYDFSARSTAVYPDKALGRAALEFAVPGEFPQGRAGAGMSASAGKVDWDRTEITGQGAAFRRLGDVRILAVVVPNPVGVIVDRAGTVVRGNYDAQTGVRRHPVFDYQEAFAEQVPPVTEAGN
Described as above. Conditions: both partners purified.

B1: NylCp2 beta subunit (9 kDa) (domain or fragment, Arthrobacter, UniProt Q79F77 267-355, looked up)
chain: TTISAIVTNVRMSPVELNQFAKQVHSSMHRGIQPFHTDMDGDTLFAVTTDEIDLPTTPGSSRGRLSVNATALGAIASEVMWDAVLEAGK
notes: NylCp2, beta subunit made by autocleavage of the 355-residue precursor between Asn266 and Thr267; the same in the wild type and in the mutants crystallised here (all their substitutions lie in the alpha subunit); also called β subunit; source: E. coli JM109, purified with the alpha subunit as the active enzyme
With B1, the binding result in assay [1] and in assay [2] was “binds” in each case.

Values taken from PMC6021441, “Structural basis of the correct subunit assembly, aggregation, and intracellular degradation of nylon hydrolase” (Scientific Reports, 2018).
